Experimental data published in the supplement of paper PMC7125110.
± gives the standard error. This sample holds only a part of the variants without activity.

B1: glmS ribozyme (parent)
chain: AUAAAAGCGCCAGAACUACAGAAAUGUAGUUGACGAGGAGGAGGUUUAUCGAAUUUUCGGCGGAUGCCUCCAAA

Legend:
Conditions in all cases: with glucosamine-6-phosphate
glucosamine-6-phosphate [1] = variants of: B1; experiment: self-cleavage kobs at 160 uM GlcN6P; higher = faster cleavage; RNA array
Summary of the method: (§1)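 Tiles bearing barcoded ribozyme variants, transcribed in situ by E. coli RNA polymerase on sequenced MiSeq chips, were imaged over ~14 h at 37 °C using a hybridised Cy3 probe. Glucosamine-6-phosphate was supplied at 40 μM to 10 mM in HEPES/KCl/Mg(OAc)2 buffer. kobs came from one- or two-exponential decay fits to normalised per-tile medians, and weighted Michaelis–Menten fits then provided kcat and KM.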

glucosamine-6-phosphate [2] = variants of: B1; experiment: self-cleavage kobs at 640 uM GlcN6P; higher = faster cleavage; RNA array
Summary of the method: as §1

glucosamine-6-phosphate [3] = variants of: B1; experiment: self-cleavage kobs at 2500 uM GlcN6P; higher = faster cleavage; RNA array
Summary of the method: as §1

glucosamine-6-phosphate [4] = variants of: B1; experiment: self-cleavage kobs at 10000 uM GlcN6P; higher = faster cleavage; RNA array
Summary of the method: as §1

Variant | self-cleavage kobs at 160 uM GlcN6P (glucosamine-6-phosphate [1]) | self-cleavage kobs at 640 uM GlcN6P (glucosamine-6-phosphate [2]) | self-cleavage kobs at 2500 uM GlcN6P (glucosamine-6-phosphate [3]) | self-cleavage kobs at 10000 uM GlcN6P (glucosamine-6-phosphate [4])
A14G U54C G60C A64G C70G | < 1e-05 s⁻¹ | < 1e-05 s⁻¹ | – | –
C8A U30A G37U C58A | < 1e-05 s⁻¹ | – | – | –
C34G U47A | < 1e-05 s⁻¹ | < 1e-05 s⁻¹ | < 1e-05 s⁻¹ | –
G37A C50G C71A | 0.000356 ± 0.00012 s⁻¹ | 0.000114 ± 3.6e-05 s⁻¹ | 6.17e-05 ± 2.4e-05 s⁻¹ | –
G35A C58G | < 1e-05 s⁻¹ | – | < 1e-05 s⁻¹ | –
A6U G32C G62U | < 1e-05 s⁻¹ | – | – | –
G38A A64G C67U | < 1e-05 s⁻¹ | – | – | –
G60C G63A | < 1e-05 s⁻¹ | < 1e-05 s⁻¹ | < 1e-05 s⁻¹ | < 1e-05 s⁻¹
G38C G63A | < 1e-05 s⁻¹ | < 1e-05 s⁻¹ | < 1e-05 s⁻¹ | –
C8U C61G | < 1e-05 s⁻¹ | < 1e-05 s⁻¹ | < 1e-05 s⁻¹ | < 1e-05 s⁻¹
A15G C16A | 0.000119 ± 4.3e-05 s⁻¹ | 0.000305 ± 7.7e-05 s⁻¹ | 0.000524 ± 0.00013 s⁻¹ | –
A6G G9U G13C C34A | < 1e-05 s⁻¹ | < 1e-05 s⁻¹ | < 1e-05 s⁻¹ | –
U55C C58U | < 1e-05 s⁻¹ | – | – | 6.55e-05 ± 8.7e-06 s⁻¹
C16U G40C U47G | 6.77e-05 ± 2.5e-05 s⁻¹ | 0.000145 ± 2e-05 s⁻¹ | 0.000389 ± 9.2e-05 s⁻¹ | –
A15G U31C U45C U49A | < 1e-05 s⁻¹ | < 1e-05 s⁻¹ | < 1e-05 s⁻¹ | –
A6G A12U A36C G43C | < 1e-05 s⁻¹ | < 1e-05 s⁻¹ | < 1e-05 s⁻¹ | –
G7U A14C A48U | < 1e-05 s⁻¹ | < 1e-05 s⁻¹ | < 1e-05 s⁻¹ | –
G29A A36G C58A | < 1e-05 s⁻¹ | < 1e-05 s⁻¹ | < 1e-05 s⁻¹ | < 1e-05 s⁻¹
G7U C16G G43U C67G | < 1e-05 s⁻¹ | < 1e-05 s⁻¹ | – | –
G7A G41U | < 1e-05 s⁻¹ | < 1e-05 s⁻¹ | – | < 1e-05 s⁻¹
C8G C10U G51U A53U | < 1e-05 s⁻¹ | < 1e-05 s⁻¹ | – | –
C34G U56C | < 1e-05 s⁻¹ | – | – | –
G37A G38U U55C | < 1e-05 s⁻¹ | < 1e-05 s⁻¹ | – | –
G7U C8G G51C | < 1e-05 s⁻¹ | < 1e-05 s⁻¹ | < 1e-05 s⁻¹ | –
G40A U45C | 4.64e-05 ± 1.6e-05 s⁻¹ | – | 0.000553 ± 0.00016 s⁻¹ | –

Variant | self-cleavage kobs at 160 uM GlcN6P (glucosamine-6-phosphate [1]) | self-cleavage kobs at 640 uM GlcN6P (glucosamine-6-phosphate [2]) | self-cleavage kobs at 2500 uM GlcN6P (glucosamine-6-phosphate [3]) | self-cleavage kobs at 10000 uM GlcN6P (glucosamine-6-phosphate [4])
G51U G60C C70U | < 1e-05 s⁻¹ | < 1e-05 s⁻¹ | – | –
A6U A12G G66U | 8.08e-05 ± 2.3e-05 s⁻¹ | – | – | –
A15G C16A G60U | < 1e-05 s⁻¹ | < 1e-05 s⁻¹ | < 1e-05 s⁻¹ | –
A15G C34U G63A | < 1e-05 s⁻¹ | – | < 1e-05 s⁻¹ | –
C58G C70A | 0.000411 ± 0.00017 s⁻¹ | 4.04e-05 ± 1.9e-05 s⁻¹ | 5.93e-05 ± 1.4e-05 s⁻¹ | –
C34U U45C U65A | < 1e-05 s⁻¹ | < 1e-05 s⁻¹ | – | –
C8G U47G U54A G63U | < 1e-05 s⁻¹ | < 1e-05 s⁻¹ | < 1e-05 s⁻¹ | –
G38C A39G | < 1e-05 s⁻¹ | < 1e-05 s⁻¹ | – | –
G35U C67A | < 1e-05 s⁻¹ | < 1e-05 s⁻¹ | < 1e-05 s⁻¹ | –
C16G G43A | < 1e-05 s⁻¹ | < 1e-05 s⁻¹ | – | –
A15G G63A | < 1e-05 s⁻¹ | < 1e-05 s⁻¹ | < 1e-05 s⁻¹ | < 1e-05 s⁻¹
A14U G21A U56G | 0.00134 ± 0.00038 s⁻¹ | 0.0043 ± 0.0012 s⁻¹ | 0.00645 ± 0.0026 s⁻¹ | –
U49G G60U | < 1e-05 s⁻¹ | < 1e-05 s⁻¹ | < 1e-05 s⁻¹ | –
C10U A53C | < 1e-05 s⁻¹ | < 1e-05 s⁻¹ | – | –
C8G A52G | < 1e-05 s⁻¹ | < 1e-05 s⁻¹ | < 1e-05 s⁻¹ | < 1e-05 s⁻¹
G37A G38A | < 1e-05 s⁻¹ | < 1e-05 s⁻¹ | < 1e-05 s⁻¹ | < 1e-05 s⁻¹
G9C U56G A64C | < 1e-05 s⁻¹ | < 1e-05 s⁻¹ | < 1e-05 s⁻¹ | –
A6U G9A U49C | < 1e-05 s⁻¹ | – | – | –
G35C U57G G59C | < 1e-05 s⁻¹ | – | – | –
U31A G35C U54A A64U | < 1e-05 s⁻¹ | – | < 1e-05 s⁻¹ | –
C8A U57A | < 1e-05 s⁻¹ | < 1e-05 s⁻¹ | < 1e-05 s⁻¹ | < 1e-05 s⁻¹
G38A C61U C70G | < 1e-05 s⁻¹ | – | – | –
G35U A42C | < 1e-05 s⁻¹ | < 1e-05 s⁻¹ | < 1e-05 s⁻¹ | –
G35A A36U U55A | < 1e-05 s⁻¹ | – | – | –
